Source: the nanobody polyreactivity screen of Harvey et al. (2022)

experiment: yeast display, Sf9 membrane polyspecificity reagent, FACS + sequencing; frameworks hold sequencing errors
In short: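 Nanobodies came from a synthetic yeast display library in Saccharomyces cerevisiae BJ5465, induced with galactose for 36–48 hours and stained for 1 hour at 4 °C with 10% biotinylated, detergent-solubilized Sf9 membrane reagent. Cells were enriched on streptavidin microbeads and then FACS-sorted, with low and high (top ~1%) gates set on anti-HA fluorescence for expression and streptavidin fluorescence for reagent binding. Each polyreactivity label reflects the gate a clone came from. Genes were amplified by colony PCR, sequenced by MiSeq 2 × 250 and filtered by CDR length.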

Sequence | polyreactivity (PSR sort gate)
QVQLVESGAGLVQAGGSLRLSCAASGRIFYWNAMGWYTQAPGKEREFVAAISWSGGSTYADSVKGRFTISRDNAKNTVYLQMNSLKPEDTAVYYCATRVSRSFRAYDYWGQGTQVTVSS | high polyreactivity
QVQLVESGAGLVQAGGSLRLSCAASGRTFAFYAMGWYRQAPGKERELVAAITLGASRTYYADSVKGRFTISRDNAKNTVYLQMNSRKPEDTAVYYCNAVGRRNVDSSLNDYWGQGTLVTVSS | low polyreactivity
QVQLVESGAGLVQAGGSLRLSCAASGRTFWSYAMGWYRQAPGKERELVAAIRTSDGITYYADSVKGRFTISRDNAKNTVYLQMNSLKPEDTAVYYCAAENWYNYDYWGQGTQVSVSS | low polyreactivity
QVQLVESGAGLVQAGGSLRLSCAASGRTLKTYVMGWYRQAPGKERELVAAITCGGRTYYADSVKGRFTISRDNAKNTVYLQMNSLKPEDTAVYYCNAQLYWYRYWYLFDNTSFDYWGQGTQVTVSS | low polyreactivity
QVQLVESGAGLVQAGGSLRLSCAASGSIFDDYAMGWSRQAPGKESELVAAISSSGTSTYYADSVKGRFTISRDNAKNTVYLQMNSLKPEDTAVYYCNRGLAARVGSGDYWGQGTQVTVSS | low polyreactivity
QVQLVESGAGLVQAGGSLRLSCAASGSIFQPDAMGWYRQAPGKERELVAAITNCGSTYYADSVKGRFTISRDNAKNTVYLQMNSLNPEVTAVYYCAADVQSSHEYDYWGQGTQVTVSS | low polyreactivity
QVQLVESGAGLVQAGGSLRLSCAASGSISRYYAMGWYRQAPGKERELVAAISVSGGSTYYADSVKGRFTISRDNAKNTVYLQMNSLKPEHTAVYYCKKVRLSDYDWGQGTQVTVSS | high polyreactivity
QVQLVESGAGLVQAGGSLRLSCAASGSTFCRYVAMGWYRQAPGKERELVAAISVSDGDTYYADSVKGRFTISRDNAKNTVYLQMNSLKPEDTAVYYCAAESFYGYDYWGQGTQVTVSS | high polyreactivity
QVQLVESGAGLVQAGGSLRLSCAASGSTFGFNTMGWYRQAPGKERELVAAISWSTGRTNYADSVKGRFTISRDNAKNTVYLQMNRLKPEDTAVYYCAARALDKYRFGGRYDYWGQGTQVTVSS | low polyreactivity
QVQLVESGAGLVQAGGSLRLSCAASGSTFGINAMGWYRQAPGKERELVASIRGDGGSTYYADSVKGRFTISRDNEKNTVSLQMNSLKPEDTAVYYCNKDDFSSPGENRYHSDPYDSWGQGTQVTVSS | low polyreactivity
QVQLVESGAGLVQAGGSLRLSCAASGSTFGRNAMGWYRQPPGKERELVASISSGGSTYYADSVKGRFTISRDNAKNTVYLQMNSLKPEDTAVYYCAKDWVYEISYYYYELDYWGQGTQVTVSS | low polyreactivity
QVQLVESGAGLVQAGGSLRLSCAASGSTFVINAMGWYRQPPGKEREFVADIDYRGGSTNYADSVKGRFTISHDNAKNTFYLQMNSLKPEDTAVYYCAAARVTIRSSHWSVDYWGQGTQVTVSS | low polyreactivity
QVQLVESGAGLVQAGGSLRLSCAASGSTFWWNTMGWYRQAPGKERELVAAITTGGGTYYADSVKGRFTISRDNAKNTVYLQMNSLKPEDTAVYYCAATVRSYGWYAYHYSTYGYWGQGTQVTVSS | low polyreactivity
QVQLVESGAGLVQAGGSLRLSCAASGYTFYFYAMGWYRQAPGKERELVAAITGGGTTSYADSVKGRFTISRDNAKNTVYLQMNSLKPEDTAVYYCNVLFADKSDYCGQGTQVTVSS | low polyreactivity
QVQLVESGAGLVQAGGSLRLSCADSGIIFSSNAMGWYRQAPGKERELVASITSAGNTYYADSVKGRFTISRDNAKNTVYLQMNSLKPEDTAVYYCYARYYYQYFHFSWSYPYGSWGQGTQVTVSS | high polyreactivity
QVQLVESGAGLVQAGGSLRLSCAPSGFTFSWYVMGWYRQAPGKERELVAAITSSGGRTYYADSVKGRFTISRDNAKNTVYLQMNSLKPEDTAVYYCAARFKRGLGDSWGQGTQVTVSS | high polyreactivity
QVQLVESGAGLVQAGGSLRLSCDASGRTVNIYAMGWYRQAPGKERELVADISYSDGSTDYADSVKGRFTISRDNAKNTVYLQMNSLKPEDTAVYYCAAYYYYYYGFGQRYYSWGQGTQVTVSS | low polyreactivity
QVQLVESGAGLVQAGGSLRLSFAASGRTFRGYAMGLYRQGPGKEREWVAAISSGGSTYYADSVKGRFTISRDNAKNTVSLQMYSLKPEDTAVYYCARAVGNYRTLEFDYWGQGTQVTVSS | low polyreactivity
QVQLVESGAGLVQAGGSRRLSCAASVLIFAWYAMGWSRQAPGNERELVAAITGTGSSTYYADSVKGRFTISRDNAKNTVYLLLNSLKPDDTAVYYCAPTSLPRYYYWGQGTQVTVSS | low polyreactivity
QVQLVESGAGLVQAGVSLRLSCAASGSIFADYAMGWYRQAPGKERELVAVISRRGGTTYYADSVKGRFTISRDNAKNTVYLPMNSLKPEDTAVYYCAARRSFNEYDYWGQGTQVTVSS | high polyreactivity
QVQLVESGAGLVQAGVSLRLSCAPSGFTFTGYAMGWYRQSPGKERELVASISKSDGSTYYAESVKGRFTISRDNAKNTVYLQMNSLKPEDTAVFYCAADANTRGSKGRLTHYDYWGQGSQVTVSS | low polyreactivity
QVQLVESGAGLVQARASHRLSCAASGSTLYAYAIGCSRQEPGKEREMVAAISGTGGSTYYADSVKGRFTISRDNAKNTVYLQMNTLKPEDTADYYCAAYYNYFGQRYYYWGQGTQVTVSS | high polyreactivity
QVQLVESGAGVVQAGGSLRLSCAASGSTFYRYAMGWYRQAPGKERELVATITNSGGSTYYADSVKGRFTISRDNAKNTVYLQMNSLKPEDTAVYYCARVRSRNTGYYYWGQGTQVTVSS | high polyreactivity
QVQLVESGEGLVQAGGSLRLSCAASGIFPYNAMGWYRQAPGKEREFVAGISRRGGSTYYADSVKGRFTISRDNAKNTVYLQMNSLKPEDTAVYYCAAGTYHKVVRRWASYYYWGQGTQVTVSS | high polyreactivity
QVQLVESGGALDQAGGSLRLTCAASGFIFGVNAKGWYRKAPGKERELVAAITARSGSTYYADSVKGRFTISRDNAKNTVYLQMNSLKPEDTAVYYWATPVYRSTYEYDYWGQGTQVTVSS | low polyreactivity
QVQLVESGGALDQAGGSLRLTCAASGFIFYFYAKGWYRQAPGKERELVAAIDSAGSTNYADSVKGRFTISRDNAKNTVYLQMNSLKPEDTAVYYCAREPDSYVSWRSRYNYWGQGTQVTVSS | low polyreactivity
QVQLVESGGALLQAGGSLRLSCAASGGTFYDYAMGWYRQAPGKERELVAAISASGDSTYYADSVKGRFTISRDNAMNTVYLQMNSLKPEDTAVYYCAAEFTAFDGFDYWGQGTQVTVSS | low polyreactivity
QVQLVESGGALVLAGGSLRLSCAASGFTFQYYAMGWYRQAPGKERELVAAIDWTGGSTYYADSVKGRFTISRDNAKNTVYLQMNSLKPEDTAVYFCNRELTSPRRWHVSRAYDYWGQGTQVTVSS | low polyreactivity
QVQLVESGGALVQAGGRLRLSCAASGRTFRAYAMGWYRQAPGKERELVAAITSGGSTYYADSVKGRFTISRDNAKNTVYLQMNSLKPEDTEVYYCNRRGWSRTHQYDYWGQGTQVTVSS | high polyreactivity
QVQLVESGGALVQAGGSLRISCAASGLTFKLYTMGWYRQAPGKERELLAAISRSGTRTYYADSVKGRFTISRDNAKNTVYLLMNSLKPEDTADYYCAARTDGYRNNYWGQGTQVTVSS | high polyreactivity
